The source of these data is patent US20100240080A1.

In data set [1] the target is Abl 1 substrate, SEQ ID NO: 3 (…), modified with 7-hydroxycoumarin and 5-FAM. Description: cell-based or functional assay.
In data set [2] the test system is T1, Akt 1 substrate, SEQ ID NO: 59 (ARPRAFSVGK), modified with 7-hydroxycoumarin and 5-FAM.
T1 sequence: ARPRAFSVGK

In data set [3] the target is Akt 1 substrate, SEQ ID NO: 59 (…), modified with 7-hydroxycoumarin and 5-FAM. Description: cell-based or functional assay.
Data set [4] concerns T2, SEQ ID NO: 47 (ALRRFSLGEK), modified as described.
T2 sequence: ALRRFSLGEK

Data set [5] relates to T3, SEQ ID NO: 113 (RPRTFSS*LAEGK), labelled phosphopeptide.
T3 sequence: RPRTFSSLAEGK

Data set [6] relates to T4, SEQ ID NO: 103 (GDQDYLS*LDK), labelled phosphopeptide.
T4 sequence: GDQDYLSLDK

Data set [7] has as its system T5, SEQ ID NO: 109 (ARPRAFS*VGK), labelled phosphopeptide.
T5 sequence: ARPRAFSVGK

For data set [8], the system named is T6, SEQ ID NO: 110 (RRRQFS*LRRKAK), labelled phosphopeptide.
T6 sequence: RRRQFSLRRKAK

Data set [9] deals with T7, SEQ ID NO: 100 (RGGLFS*TTPGGTK), labelled phosphopeptide.
T7 sequence: RGGLFSTTPGGTK

For data set [10], the target named is T8, SEQ ID NO: 31 (EEEIY*GVIEK), labelled phosphopeptide.
T8 chain: EEEIYGVIEK

Take “Abl 1 kinase (from UniProt P00519 1-1130) (enzyme)”: the % of substrate phosphorylated in the 0% inhibition control (1.5 ng Abl 1/well, 10 µM ATP) in data set [1] stood at 30%.
In data set [2], Akt 1 kinase yielded a % Phosphorylation at 5.0 ng Akt 1 kinase per well of 8%, a % Phosphorylation at 10.0 ng Akt 1 kinase per well of 12%, a % Phosphorylation at 25.0 ng Akt 1 kinase per well of 20% and a % Phosphorylation at 37.5 ng Akt 1 kinase per well of 28%. In addition, in [2], the % Phosphorylation at 42.0 ng Akt 1 kinase per well was 30%, the % Phosphorylation at 50.0 ng Akt 1 kinase per well was determined as 33%, the % Phosphorylation at 75.0 ng Akt 1 kinase per well came to 38% and the % Phosphorylation at 100.0 ng Akt 1 kinase per well came out at 43%. In data set [2], the % Phosphorylation at 150.0 ng Akt 1 kinase per well is 50%.
In data set [3], “Akt 1 kinase (from UniProt P31749 1-480) (enzyme)” came in with a % of substrate phosphorylated in the 0% inhibition control (42 ng Akt 1/well, 10.5 µM ATP) of 30%.
PKA: in data set [4], the “% phosphorylation by PKA (kinase titration, FRET/chymotrypsin read-out)” value was “SEQ ID NO: 47 modified as described, is the best substrate for the kinase because it yielded maximal phosphorylation even at low kinase concentrations”.
As to PP2A, the “phosphatase substrate screen (dephosphorylation, FRET/chymotrypsin read-out)” value in data set [5] is “SEQ ID NOs: 103, 109, 110, and 113 were substrates of PP2A”; in [6], “SEQ ID NOs: 103, 109, 110, and 113 were substrates of PP2A”; in data set [7], “SEQ ID NOs: 103, 109, 110, and 113 were substrates of PP2A”; in [8], “SEQ ID NOs: 103, 109, 110, and 113 were substrates of PP2A”.
Consider PP2B, for which the “phosphatase substrate screen (dephosphorylation, FRET/chymotrypsin read-out)” value is “SEQ ID NOs: 100 and 110 were substrates of PP2B” in [9]; “SEQ ID NOs: 100 and 110 were substrates of PP2B” in [8].
For PP2C, the “phosphatase substrate screen (dephosphorylation, FRET/chymotrypsin read-out)” value in data set [9] was “SEQ ID NOs: 100, 109, and 110 were substrates of PP2C”; in data set [7] it was “SEQ ID NOs: 100, 109, and 110 were substrates of PP2C”; in data set [8], “SEQ ID NOs: 100, 109, and 110 were substrates of PP2C”.

B1: LAR (protein)
chain: KRKRTHSPSSKDEQSIGLKDSLLAHSSDPVEMRRLNYQTPGMRDHPPIPITDLADNIERLKANDGLKFSQEYESIDPGQQFTWENSNLEVNKPKNRYANVIAYDHSRVILTSIDGVPGSDYINANYIDGYRKQNAYIATQGPLPETMGDFWRMVWEQRTATVVMMTRLEEKSRVKCDQYWPARGTETCGLIQVTLLDTVELATYTVRTFALHKSGSSEKRELRQFQFMAWPDHGVPEYPTPILAFLRRVKACNPLDAGPMVVHCSAGVGRTGCFIVIDAMLERMKHEKTVDIYGHVTCMRSQRNYMVQTEDQYVFIHEALLEAATCGHTEVPARNLYAH
For the molecule B1, in [10], the “phosphatase substrate screen (dephosphorylation, FRET/chymotrypsin read-out)” value is “SEQ ID NO: 31 was a substrate for both PTP1B and LAR”.

B2: PTP1B (protein)
chain: MEMEKEFEQIDKSGSWAAIYQDIRHEASDFPCRVAKLPKNKNRNRYRDVSPFDHSRIKLHQEDNDYINASLIKMEEAQRSYILTQGPLPNTCGHFWEMVWEQKSRGVVMLNRVMEKGSLKCAQYWPQKEEKEMIFEDTNLKLTLISEDIKSYYTVRQLELENLTTQETREILHFHYTTWPDFGVPESPASFLNFLFKVRESGSLSPEHGPVVVHCSAGIGRSGTFCLADTCLLLMDKRKDPSSVDIKKVLLEMRKFRMGLIQTADQLRFSYLAVIEGAKFIMGDSSVQDQWKELSHEDLEPPPEHIPPPPRPPKRILEPHN
For B2, in data set [10], the “phosphatase substrate screen (dephosphorylation, FRET/chymotrypsin read-out)” value is “SEQ ID NO: 31 was a substrate for both PTP1B and LAR”.
